Our source for the pIC50 values is US20250339569A1 (3B PHARMACEUTICALS, published 2025).

Sequences and labels used below:
B1: 3BP-3963 (peptide)
peptide: Ac-VYCE[dP]KWLEWS[Pen]-NH2
modifications: linker 3-12 via mXylylene; lactam 6-9
SMILES: CC(=O)N[C@H](C(=O)N[C@@H](Cc1ccc(O)cc1)C(=O)N[C@H]1CSCc2cccc(c2)CSC(C)(C)[C@@H](C(N)=O)NC(=O)[C@H](CO)NC(=O)[C@H](Cc2c[nH]c3ccccc23)NC(=O)[C@@H]2CCC(=O)NCCCC[C@H](NC(=O)[C@H]3CCCN3C(=O)[C@H](CCC(=O)O)NC1=O)C(=O)N[C@@H](Cc1c[nH]c3ccccc13)C(=O)N[C@@H](CC(C)C)C(=O)N2)C(C)C
B2: 3BP-4257 (peptide)
peptide: {DOTA}-SDCE[dP]DWLTW[Dap]C-NH2
modifications: lactam 11-2; linker 3-12 via mXylylene
SMILES: CC(C)C[C@@H]1NC(=O)[C@H](Cc2c[nH]c3ccccc23)NC(=O)[C@H](CC(=O)O)NC(=O)[C@H]2CCCN2C(=O)[C@H](CCC(=O)O)NC(=O)[C@@H]2CSCc3cccc(c3)CSC[C@@H](C(N)=O)NC(=O)[C@H](CNC(=O)C[C@H](NC(=O)[C@H](CO)NC(=O)CN3CCN(CC(=O)O)CCN(CC(=O)O)CCN(CC(=O)O)CC3)C(=O)N2)NC(=O)[C@H](Cc2c[nH]c3ccccc23)NC(=O)[C@H]([C@@H](C)O)NC1=O

Starred links: 1 amine or outer side, 2 acyl side, 3 side chain; linkers in the order of their positions; H or OH if unused. Positions of bridges follow the written chain, without caps; N, C: chain ends. Non-standard residues stand in square brackets, D forms with d. Primed or numbered codes have the meaning given here. *: point of attachment. APAc″ = 2-(4-(amino)piperidin-1-yl)acetic acid, NC1CCN(CC(=O)*)CC1; DOTA = O=C(O)CN1CCN(CC(=O)O)CCN(CC(=O)*)CCN(CC(=O)O)CC1; dmo = (R)-dimethylornithine (D form); mXylylene = c1cc(C[*:1])cc(C[*:2])c1; Orn(Me2) = CN(C)CCC[C@H](N)C(=O)O; NMeD = CN[C@@H](CC(=O)O)C(=O)O; Pen = CC(C)(S)[C@H](N)C(=O)O; hSer = N[C@@H](CCO)C(=O)O; APAc = not defined here; Dap = NC[C@H](N)C(=O)O

The target in the test is human carbonic anhydrase 9 (CAIX) (human, UniProt Q16790 38-459). Description: FACS competition on HT-29 cells, competitor tracer 3BP-2776; category A = pIC50 >8.0. The procedure: CAIX-expressing human HT-29 colorectal cancer cells (DSMZ, RRID: CVCL_0320) were cultured in McCoys's 5A modified medium (Biochrom, #F1015) including 10% fetal calf serum (FCS), 2 mM L-glutamine, 100 U/ml penicillin and 100 μg/mL streptomycin. Cells were detached with Accutase (Biolegend, #423201) and washed in FACS buffer (PBS including 1% FCS). Cells were diluted in FACS buffer to a final concentration of 500.000 cells per ml. 200 μL of the cell suspension were transferred to a u-shaped non-binding 96-well plate (Greiner) and cells were washed in ice-cold FACS buffer.
When biotinylated compounds were used an additional incubation step with 1 μg/mL APC-Streptavidin (Miltenyi; #130-106-791) in 50 μL FACS buffer for 30 minutes on ice was performed.
Cells were washed twice with ice-cold FACS buffer and analyzed in an Attune NxT flow cytometer (Thermo Fisher). Median fluorescence intensities (MFI) of the APC/Cy5-channel were calculated by Attune NxT software.
For the molecule {DOTA-APAc}-VYCE[dP]DWL[Orn(Me2)]WSC-NH2 (linker 3-12 via mXylylene; reading uncertain) [3BP-4099], the pIC50 was over 8 pic50.
As to {DOTA-APAc}-V[Orn(Me2)]CE[dP]DWLTWSC-NH2 (linker 3-12 via mXylylene; reading uncertain) [3BP-4095], the pIC50 was over 8 pic50.
On to {DOTA-APAc″}-V[Dap]CE[dP]DWLTWDC-NH2 (lactam 2-11; linker 3-12 via mXylylene) [3BP-4176], for which the pIC50 is over 8 pic50.
The same measure for {DOTA-APAc″}-V[Dap]CE[dP]DWLTWEC-NH2 (lactam 2-11; linker 3-12 via mXylylene) [3BP-4177]: over 8 pic50; for {DOTA-APAc}-VYCE[dP][NMeD]WLTWSC-NH2 (linker 3-12 via mXylylene; reading uncertain) [3BP-4107]: over 8 pic50; for B1: over 8 pic50.
Molecule {DOTA-APAc}-VYC[Orn(Me2)][dP]DWLTWSC-NH2 (linker 3-12 via mXylylene; reading uncertain) [3BP-4096] showed a pIC50 of over 8 pic50.
{DOTA-APAc}-VYCE[dmo]DWLTWSC-NH2 (linker 3-12 via mXylylene; reading uncertain) [3BP-4097] gave a pIC50 of over 8 pic50.
For {DOTA-APAc″}-VDCE[dP]DWLTW[Dap]C-NH2 (lactam 2-11; linker 3-12 via mXylylene) [3BP-4174], the pIC50 was over 8 pic50.
The same measure for {DOTA-APAc″}-VECE[dP]DWLTW[Dap]C-NH2 (lactam 2-11; linker 3-12 via mXylylene) [3BP-4175]: over 8 pic50; for B2: over 8 pic50.
The same measure for {DOTA-APAc}-VYCE[dP]DWLTW[Orn(Me2)]C-NH2 (linker 3-12 via mXylylene; reading uncertain) [3BP-4100]: over 8 pic50; for {DOTA-APAc}-VYC[hSer][dP]DWLTWSC-NH2 (linker 3-12 via mXylylene; reading uncertain) [3BP-4101]: over 8 pic50.
